The text below walks through data of patent US20120165265A1, “Calcium Signaling Modulators Involving STIM and ORAI Proteins” (priority 2009, published 2012).

Entries after “also recorded” stand apart in the source; their conditions may differ.

One assay concerns endogenous CRAC channels. Briefly: NFAT-luciferase assay in HEK 293T (NFAT-Luc) cells. Format: cell-based. As to conditions: HEK 293T NFAT-luc cells transfected with STIM1 construct; PMA (1 μM) alone; listed as D5. The method, then:
NFAT-luciferase Assays. HEK 293T cells were co-transfected with the indicated constructs and an NFAT reporter gene (firefly luciferase gene C-terminal to 4×-NFAT site from the IL-2 gene). Cotransfection with the Renilla luciferase (pRLTK) gene driven by the TK promoter was used to control for cell number and transfection efficiency. After 12-18 h, cells were treated with a control DMSO solution (mock), PMA (1 μM), or PMA plus TG (1 μM) for 8 h. Assays were performed using the Dual Luciferase Reporter assay system (Promega). For each condition, luciferase activity was measured with 4 samples taken from duplicate wells using a 96-well automated luminometer (Turner Biosystems). Results are represented as the ratio of firefly to Renilla luciferase activity.
Identifying a Minimal Cytosolic Region of STIM1 that Opens the CRAC Channel. To identify the CRAC-activating domain of STIM1, we first tested a series of soluble cytosolic STIM1 fragments for their ability to activate an NFAT-dependent luciferase reporter gene (NFAT-luc). A series of constructs were generated by progressive truncation of the full-length cytosolic region of STIM1 (FIG. 2A; STIM1234-685; CT-STIM1) and were transiently expressed in a HEK 293T cell line containing NFAT-luc. […]

Assay [1] addresses T1, Orai1-ΔN, Orai1-ΔC, Orai1-ΔN73 (Homo sapiens, UniProt Q96D31).
T1 construct: expressed in transfected cells; host or cells: HEK 293
Briefly: Whole-cell recording of ICRAC with truncated Orai1 and CAD. Format: cell-based. As to conditions: cells expressing Orai1-ΔN73. The method, then:
(§1) Electrophysiology. HEK 293 cells were transfected 8-24 h prior to electrophysiology experiments with STIM1- and Orai1-derived constructs in a 1:1 mass ratio using Lipofectamine 2000. […] ICRAC in cells cultured without LaCl3 was similar to that in cells cultured with LaCl3, but most cells without LaCl3 died soon after break-in.
(§2) Currents were recorded using standard whole-cell patch clamp techniques (Prakriya and Lewis, 2001). Pipettes of resistance 2-5 MΩ were filled with an internal solution containing (in mM) 150 Cs aspartate, 8 MgCl2, 10 EGTA, and 10 HEPES (pH 7.2 with CsOH). Currents were sampled at 5 kHz and filtered at 2 kHz, and all voltages were corrected for the junction potential of the pipette solution relative to Ringer's in the bath (−13 mV).
Patch-clamp Experiments. Pipette-membrane seals were formed in 2 mM Ca^2+ Ringer's solution. After break-in to the whole-cell configuration, voltage stimuli consisting of a 100-ms step to −100 mV followed by a 100-ms ramp from −100 to +100 mV were delivered every 5 s from the holding potential of +30 mV. After the currents reached a steady level (˜300 s for wild-type STIM1), the external solution was changed via a multibarrel local perfusion pipette to a high-Ca^2+ Ringer's containing (in mM) 130 NaCl, 4.5 KCl, 20 CaCl2, 1 MgCl2, 10 D-glucose, and 5 HEPES (pH 7.4 with NaOH). […]

Assay [2] has as its target T2, Orai1 (Homo sapiens, UniProt Q96D31). As to the kind of experiment: Whole-cell patch clamp recording of ICRAC in transfected HEK 293 cells. Format: cell-based. Details: expressed in transfected cells; host or cells: HEK 293. As to conditions: compared with native ICRAC. The method, then: as §1, §2
Patch-clamp Experiments. Pipette-membrane seals were formed in 2 mM Ca^2+ Ringer's solution. After break-in to the whole-cell configuration, voltage stimuli consisting of a 100-ms step to −100 mV followed by a 100-ms ramp from −100 to +100 mV were delivered every 5 s from the holding potential of +30 mV. After the currents reached a steady level (˜300 s for wild-type STIM1), the external solution was changed via a multibarrel local perfusion pipette to a high-Ca^2+ Ringer's containing (in mM) 130 NaCl, 4.5 KCl, 20 CaCl2, 1 MgCl2, 10 D-glucose, and 5 HEPES (pH 7.4 with NaOH). All data were leak-corrected using the current elicited in 20 mM Ca^2+ Ringer's+10 μM LaCl3 at the end of the each experiment. LaCl3 and 2-APB were added directly to parent solutions on the day of the experiment from 10 mM and 100 mM stocks in H2O and DMSO, respectively.
As a definitive test for CRAC channel activation, we conducted whole-cell patch clamp recordings from HEK 293 cells transiently transfected with myc-Orai1 and either YFP-STIM1 or YFP-CAD. In cells expressing full length YFP-STIM1, ICRAC appeared over several minutes following break-in, consistent with the typical slow activation seen in response to passive store depletion (FIG. 2D). […] In contrast, inward current was present from the moment of break-in in cells expressing YFP-CAD (FIG. 2E). This current was identified as ICRAC based on its dependence on extracellular Ca^2+, inward rectification, sequential enhancement and inhibition by 2-APB, and inhibition by La^3+ (FIG. 2E and FIG. 10 C, D). ICRAC was not observed at break-in in HEK 293 cells transfected with YFP or YFP-CAD in the absence of Orai1 (FIG. 2F), consistent with the low level of endogenous STIM1 and Orai1 in these cells. […] Inactivation was restored by addition of STIM1 residues carboxy-terminal to CAD.
On the technique in general: The patch-clamp technique gives a direct electrical read-out from membranes.

Assay [3] has as its target T2, Orai1. Briefly: Co-immunoprecipitation with Orai1 in HEK 293T cells. Format: binding. Details: expressed in transfected cells; host or cells: HEK 293. The settings on record: 150 mM salt, 1% Triton X-100. The procedure: Immunoprecipitation and Immunoblot Analysis. Transfected HEK 293T cells (12-24 h) were washed with PBS and lysed in 50 mM Tris-HCl pH 7.5, 150 mM NaCl, 1% Triton X-100, and protease inhibitors. Lysates were spun at 12,000 rpm for 10 min, and the supernatant was incubated with anti-Flag M2 agarose beads (Sigma), or anti-myc or -HA antibody followed by IgG agarose beads (Pierce). Lysates and immunoprecipitates were subjected to SDS-PAGE, probed with HRP-conjugated secondary antibody and detected by enhanced chemiluminescence (Pierce).
CAD Associates with Orai1 in vivo and in vitro. Because cytosolic CAD is a potent activator of Orai1 channels and is not associated with the ER, we hypothesized that CAD binds to Orai1. To test this idea, we first expressed YFP-CAD with or without myc-Orai1 in HEK 293 cells and examined its intracellular localization. […] To provide additional evidence that CAD and Orai1 are part of the same protein complex we expressed Flag-tagged CAD and GFP-tagged Orai1 in HEK 293T cells and immunoprecipitated CAD with anti-Flag antibodies. GFP-myc-Orai1 was detected in the immunoprecipitates from cells co-expressing CAD and Orai1 but not from cells expressing CAD or Orai1 alone (FIG. 3B).
Thus, CAD and Orai1 form a protein complex in mammalian cells.

T2 sequence (Q96D31 whole entry, the tested form may be a part): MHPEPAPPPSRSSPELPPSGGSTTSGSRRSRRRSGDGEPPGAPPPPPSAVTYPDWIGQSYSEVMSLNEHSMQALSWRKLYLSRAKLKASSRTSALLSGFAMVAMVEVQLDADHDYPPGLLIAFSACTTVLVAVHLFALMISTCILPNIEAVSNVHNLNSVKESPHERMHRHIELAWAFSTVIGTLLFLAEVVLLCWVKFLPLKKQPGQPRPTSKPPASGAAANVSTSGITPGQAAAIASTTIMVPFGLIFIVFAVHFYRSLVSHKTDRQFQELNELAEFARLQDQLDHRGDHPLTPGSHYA
T1 sequence (Q96D31 74-301): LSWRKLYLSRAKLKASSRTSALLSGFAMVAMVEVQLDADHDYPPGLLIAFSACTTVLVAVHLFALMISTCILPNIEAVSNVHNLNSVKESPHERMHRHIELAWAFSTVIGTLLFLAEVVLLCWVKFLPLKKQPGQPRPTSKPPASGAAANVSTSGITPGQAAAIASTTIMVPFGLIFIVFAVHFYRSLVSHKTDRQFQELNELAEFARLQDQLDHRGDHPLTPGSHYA

For the substance “CAD: 107-residue CRAC activation domain within the C-terminus of STIM1 (aa 342-448), SEQ ID NO:1”, in the assay with endogenous CRAC channels, the “activation of NFAT-dependent luciferase reporter gene (NFAT-luc)” value is “active; also recorded: necessary and sufficient to activate NFAT”. The “constitutive ICRAC activation” value in assay [1] is “constitutively activated ICRAC”. Also, in the assay with Orai1 [2], the “fast Ca2+-dependent inactivation of activated current” value was “lacked fast Ca^2+-dependent inactivation”. Moreover, the “co-immunoprecipitation with Orai1” value in the assay with Orai1 [3] is given as “co-immunoprecipitates with Orai1”.
